{"source": "patent US20250361274A1", "about": "“PEPTIDE AND PEPTIDE-CONTAINING AGENT” (PEPTIDREAM INC., priority 2022, published 2025)", "key": {"BMP7": {"target": "T1, BMP7 (Homo sapiens, UniProt P18075)", "T1 sequence (P18075 293-431)": "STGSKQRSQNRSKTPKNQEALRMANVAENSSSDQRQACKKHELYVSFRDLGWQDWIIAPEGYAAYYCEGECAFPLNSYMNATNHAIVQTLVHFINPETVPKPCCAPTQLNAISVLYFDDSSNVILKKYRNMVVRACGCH", "assay": "BMP7 signal transduction inhibitory activity: SMAD1 phosphorylation by BMP7 stimulus, A549 cells", "assay_type": "cell-based", "settings": "for aLISA BMP7: A549 cells", "in_short": "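SMAD1 phosphorylation readout in A549 cells stimulated with BMP7 (10 nM). Peptides were tested at three levels (e.g. 1/10/100, 10/100/1,000, 100/300/1,000, 10/30/90 nM) or at eight points, 1/3 steps, from 100 or 1,000 nM. Recombinant Noggin served as positive control at matching concentrations.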"}, "BMP4": {"target": "T2, BMP4 (Homo sapiens, UniProt P12644)", "T2 sequence (P12644 293-408)": "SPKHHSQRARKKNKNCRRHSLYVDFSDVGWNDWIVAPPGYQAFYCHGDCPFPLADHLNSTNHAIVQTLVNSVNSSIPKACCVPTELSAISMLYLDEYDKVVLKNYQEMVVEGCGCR", "assay": "BMP4 signal transduction inhibitory activity: SMAD1 phosphorylation by BMP4 stimulus, AlphaLISA SureFire, A549 cells", "assay_type": "cell-based", "settings": "for aLISA BMP4: A549 cells"}, "[1]": {"settings": "SMAD1 phosphorylation, BMP7 10 nM, peptide conc. in assay 1, 10, 100 nM"}, "[2]": {"settings": "SMAD1 phosphorylation, BMP4 0.2 nM, peptide conc. in assay 0.2, 2, 20 nM"}, "[3]": {"settings": "inhibition of SMAD1 phosphorylation by BMP7 stimulus, peptides of Synthesis 2, classes A-D, ND"}, "[4]": {"settings": "inhibition of SMAD1 phosphorylation by BMP4 stimulus, peptides of Synthesis 2, classes A-C, ND"}}, "note": "Numbered stars: 1 amine (or outer) side, 2 acyl side, 3 side chain; on linkers, the order of the positions; unused ones are H or OH. Bridge positions count the residues as written; N and C are the ends. Square brackets hold non-standard residues; d marks the D form. Ends that are not written are not given here. MeKCOpipzaa = N6-(4-(carboxymethyl)piperazine-1-carbonyl)-N2-methyl-L-lysine, CN([C@@H](CCCCNC(=O)N1CCN(CC(=O)[*:3])CC1)C(=O)[*:2])[*:1]; KCOpipzaa = N6-(4-(carboxymethyl)piperazine-1-carbonyl)-L-lysine, O=C(NCCCC[C@H](N[*:1])C(=O)[*:2])N1CCN(CC(=O)[*:3])CC1; Hgn = (S)-2,6-diamino-6-oxohexanoic acid, NC(=O)CCC[C@H](N[*:1])C(=O)[*:2]; 3Pal(6-Ph) = N[C@@H](Cc1ccc(-c2ccccc2)nc1)C(=O)O; Phe(4-COOH) = N[C@@H](Cc1ccc(C(=O)O)cc1)C(=O)O; NMePhe(3-Me) = CN[C@@H](Cc1cccc(C)c1)C(=O)O; NMePhe(4-Me) = CN[C@@H](Cc1ccc(C)cc1)C(=O)O; Bip = N[C@@H](Cc1ccc(-c2ccccc2)cc1)C(=O)O; 3Pal(6-NH2) = Nc1ccc(C[C@H](N)C(=O)O)cn1; Phe(4-F) = N[C@@H](Cc1ccc(F)cc1)C(=O)O; NMeF = CN[C@@H](Cc1ccccc1)C(=O)O; 4Pal = N[C@@H](Cc1ccncc1)C(=O)O; Cha = N[C@@H](CC1CCCCC1)C(=O)O; βAla = NCCC(=O)O"}
{"substance": "349 (FG[NMeF]G[Bip]GDD[Cha]A[NMeF]LLCG-NH2; not fully specified (N-terminus, bridges)) [compound 349]", "values": [{"measurement": "aLISA BMP7 (10 nM) % inh", "setting": "BMP7; [1]", "result": "D (showed less than 30% of inhibitory activity in 10 nM-addition zone and showed 30% or more of inhibitory activity in 100 nM-addition zone)"}, {"measurement": "aLISA BMP4 (0.2 nM) % inh", "setting": "BMP4; [2]", "result": "ND (the inhibitory activity was less than 30% at the maximum concentration evaluated)"}]}
{"substance": "398 ([Phe(4-F)]G[NMePhe(4-Me)]G[Bip]GDD[Cha]A[NMePhe(4-Me)]LHCG-NH2; not fully specified) [compound 398]", "values": [{"measurement": "aLISA BMP7 (10 nM) % inh", "setting": "BMP7; BMP7 10 nM stimulus, peptide conc. in assay 1, 10, 100 nM", "result": "D (showed less than 30% of inhibitory activity in 10 nM-addition zone and showed 30% or more of inhibitory activity in 100 nM-addition zone)"}, {"measurement": "aLISA BMP4 (0.2 nM) % inh", "setting": "BMP4; BMP4 0.2 nM stimulus, peptide conc. in assay 0.2, 2, 20 nM", "result": "A (showed less than 30% of inhibitory activity in 2 nM-peptide-addition zone and showed 30% or more of inhibitory activity in 20 nM-addition zone)"}]}
{"substance": "253 (ERVYVSR[3Pal(6-Ph)]SYV[Bip][4Pal][Phe(4-COOH)][Phe(4-COOH)]SCG-NH2; not fully specified) [compound 253]", "values": [{"measurement": "aLIZA BMP7 (10 nM) % Inh", "setting": "BMP7; SMAD1 phosphorylation by BMP7 stimulus, peptide conc. in assay 10, 100, 1000 nM, class symbols", "result": "ND (the inhibitory activity was less than 30% at the maximum concentration evaluated)"}, {"measurement": "aLIZA BMP4 (0.2 nM) % Inh", "setting": "BMP4; SMAD1 phosphorylation by BMP4 stimulus, peptide conc. in assay 0.02, 0.2, 2 nM, class symbols", "result": "C (showed less than 30% of inhibitory activity in 0.2 nM-addition zone and showed 30% or more of inhibitory activity in 2 nM-addition zone)"}]}
{"substance": "78 ({CH2CO}-ERVYVDR[Bip][KCOpipzaa]YP[Bip][Phe(4-F)][Phe(4-COOH)][4Pal]SCG-NH2; thioether N-17; not fully specified) [compound 78]", "values": [{"measurement": "aLISA BMP7", "setting": "BMP7; inhibition of SMAD1 phosphorylation by BMP7 stimulus, AlphaLISA, class by peptide concentration zone", "result": "C (showed less than 50% of inhibitory activity in 10 nM-addition zone and showed 50% or more of inhibitory activity in 100 nM-addition zone)"}, {"measurement": "aLISA BMP4", "setting": "BMP4; inhibition of SMAD1 phosphorylation by BMP4 stimulus, AlphaLISA, class by peptide concentration zone", "result": "A (showed an inhibitory activity of 50% or more in a zone to which the peptide was added to in an amount of 0.2 nM)"}]}
{"substance": "386 (FG[NMePhe(3-Me)]G[Bip]GDD[Cha]A[NMeF]LHCG-NH2; not fully specified) [compound 386]", "values": [{"measurement": "aLISA BMP7 (10 nM) % inh", "setting": "BMP7; BMP7 10 nM stimulus, peptide conc. in assay 10, 30, 90 nM", "result": "F (showed less than 30% of inhibitory activity in 10 nM-addition zone and showed 30% or more of inhibitory activity in 30 nM-addition zone)"}, {"measurement": "aLISA BMP4 (0.2 nM) % inh", "setting": "BMP4; BMP4 0.2 nM stimulus, peptide conc. in assay 2, 20, 200 nM", "result": "B (showed less than 30% of inhibitory activity in 20 nM-addition zone and showed 30% or more of inhibitory activity in 200 nM-addition zone)"}]}
{"substance": "101 ({CH2CO}-E[KCOpipzaa]VYV[KCOpipzaa]R[3Pal(6-Ph)]SYP[Bip]Y[Phe(4-COOH)][Phe(4-COOH)]SC[βAla][dE]-OH; thioether N-17; not fully specified) [compound 101]", "values": [{"measurement": "aLISA BMP7", "setting": "BMP7; [3]", "result": "C (showed less than 50% of inhibitory activity in 10 nM-addition zone and showed 50% or more of inhibitory activity in 100 nM-addition zone)"}, {"measurement": "aLISA BMP4", "setting": "BMP4; [4]", "result": "A (showed an inhibitory activity of 50% or more in a zone to which the peptide was added to in an amount of 0.2 nM)"}]}
{"substance": "32 (ARVYVDR[3Pal(6-Ph)]PYP[3Pal(6-Ph)]Y[Phe(4-COOH)][Phe(4-COOH)]SCG-NH2; not fully specified (N-terminus, bridges)) [compound 32]", "values": [{"measurement": "aLISA BMP7", "setting": "BMP7; 10 nM BMP7, peptides of Synthesis 2, peptide 1, 10, 100 nM", "result": "ND (the inhibitory activity was less than 30% at the maximum concentration evaluated)"}, {"measurement": "aLISA BMP4", "setting": "BMP4; SMAD1 phosphorylation, peptides of Synthesis 2, peptide 0.02, 0.2, 2 nM", "result": "A (showed an inhibitory activity of 50% or more in a zone to which the peptide was added to in an amount of 0.2 nM)"}]}
{"substance": "85 ({CH2CO}-ERVYVDR[Bip]SYV[Bip]Y[Phe(4-COOH)][Phe(4-COOH)]SC[βAla][dE]-OH; thioether N-17; not fully specified) [compound 85]", "values": [{"measurement": "aLISA BMP7", "setting": "BMP7; [3]", "result": "C (showed less than 50% of inhibitory activity in 10 nM-addition zone and showed 50% or more of inhibitory activity in 100 nM-addition zone)"}, {"measurement": "aLISA BMP4", "setting": "BMP4; [4]", "result": "A (showed an inhibitory activity of 50% or more in a zone to which the peptide was added to in an amount of 0.2 nM)"}]}
{"substance": "121 ({CH2CO}-ERV[Phe(4-COOH)]VDR[Bip]PYP[Bip]Y[Phe(4-COOH)][Phe(4-COOH)]SC[βAla][dE]-OH; thioether N-17; not fully specified) [compound 121]", "values": [{"measurement": "aLISA BMP7", "setting": "BMP7; [3]", "result": "B (showed less than 50% of inhibitory activity in 1 nM-addition zone and showed 50% or more of inhibitory activity in 10 nM-addition zone)"}, {"measurement": "aLISA BMP4", "setting": "BMP4; [4]", "result": "A (showed an inhibitory activity of 50% or more in a zone to which the peptide was added to in an amount of 0.2 nM)"}]}
{"substance": "324 (FG[NMeF]GFGDD[Cha]A[NMeF]LHCG-NH2) [compound 324]", "values": [{"measurement": "aLISA BMP7 (10 nM) % inh", "setting": "BMP7; [1]", "result": "D (showed less than 30% of inhibitory activity in 10 nM-addition zone and showed 30% or more of inhibitory activity in 100 nM-addition zone)"}, {"measurement": "aLISA BMP4 (0.2 nM) % inh", "setting": "BMP4; [2]", "result": "ND (the inhibitory activity was less than 30% at the maximum concentration evaluated)"}]}
{"substance": "150 ({CH2CO}-ERVYVDR[Bip]PYV[Bip]Y[Phe(4-COOH)][3Pal(6-NH2)]SCG-NH2; thioether N-17; not fully specified) [compound 150]", "values": [{"measurement": "aLISA BMP7", "setting": "BMP7; inhibition of SMAD1 phosphorylation by BMP7 stimulus, peptides of Synthesis 1, classes E, F, ND", "result": "E (showed 50% or more of inhibitory activity in a zone to which the peptide was added in an amount of 10 nM)"}, {"measurement": "aLISA BMP4", "setting": "BMP4; inhibition of SMAD1 phosphorylation by BMP4 stimulus, peptides of Synthesis 1, classes D-F, ND", "result": "E (showed less than 50% of inhibitory activity in 0.2 nM-addition zone and showed 50% or more of inhibitory activity in 2 nM-addition zone)"}]}
{"substance": "343 (FG[NMeF]G[Bip]GDD[Cha][Hgn][NMeF]LHCG-NH2; not fully specified (N-terminus, bridges)) [compound 343]", "values": [{"measurement": "aLISA BMP7 (10 nM) % inh", "setting": "BMP7; [1]", "result": "D (showed less than 30% of inhibitory activity in 10 nM-addition zone and showed 30% or more of inhibitory activity in 100 nM-addition zone)"}, {"measurement": "aLISA BMP4 (0.2 nM) % inh", "setting": "BMP4; [2]", "result": "ND (the inhibitory activity was less than 30% at the maximum concentration evaluated)"}]}
{"substance": "284 (ERV[Phe(4-COOH)]V[KCOpipzaa]R[3Pal(6-Ph)][KCOpipzaa]YV[Bip][4Pal][Phe(4-COOH)][Phe(4-COOH)]SC[βAla]) [compound 284]", "values": [{"measurement": "aLIZA BMP7 (10 nM) % inh", "setting": "BMP7; BMP7 10 nM stimulus, peptide conc. in assay 100, 300, 1000 nM, class symbols", "result": "ND (the inhibitory activity was less than 30% at the maximum concentration evaluated)"}, {"measurement": "aLIZA BMP4 (0.2 nM) % inh", "setting": "BMP4; BMP4 0.2 nM stimulus, peptide conc. in assay 0.02, 0.2, 2 nM, class symbols", "result": "C (showed less than 30% of inhibitory activity in 0.2 nM-addition zone and showed 30% or more of inhibitory activity in 2 nM-addition zone)"}]}
{"substance": "103 ({CH2CO}-ERV[Phe(4-COOH)]V[KCOpipzaa]R[Bip]SYP[Bip]Y[Phe(4-COOH)][Phe(4-COOH)]SC[βAla][dE]-OH; thioether N-17; not fully specified) [compound 103]", "values": [{"measurement": "aLISA BMP7", "setting": "BMP7; [3]", "result": "A (showed 50% or more of inhibitory activity in a zone to which the peptide was added in an amount of 1 nM)"}, {"measurement": "aLISA BMP4", "setting": "BMP4; [4]", "result": "A (showed an inhibitory activity of 50% or more in a zone to which the peptide was added to in an amount of 0.2 nM)"}]}
{"substance": "81 ({CH2CO}-E[KCOpipzaa]VYVDR[Bip][MeKCOpipzaa]YP[Bip][Phe(4-F)][Phe(4-COOH)][4Pal]SCG-NH2; thioether N-17; not fully specified) [compound 81]", "values": [{"measurement": "aLISA BMP7", "setting": "BMP7; [3]", "result": "C (showed less than 50% of inhibitory activity in 10 nM-addition zone and showed 50% or more of inhibitory activity in 100 nM-addition zone)"}, {"measurement": "aLISA BMP4", "setting": "BMP4; [4]", "result": "A (showed an inhibitory activity of 50% or more in a zone to which the peptide was added to in an amount of 0.2 nM)"}]}
